Assay results taken from US20140073575.

T1: His10-tagged human collagen III construct, P02461
T1 chain: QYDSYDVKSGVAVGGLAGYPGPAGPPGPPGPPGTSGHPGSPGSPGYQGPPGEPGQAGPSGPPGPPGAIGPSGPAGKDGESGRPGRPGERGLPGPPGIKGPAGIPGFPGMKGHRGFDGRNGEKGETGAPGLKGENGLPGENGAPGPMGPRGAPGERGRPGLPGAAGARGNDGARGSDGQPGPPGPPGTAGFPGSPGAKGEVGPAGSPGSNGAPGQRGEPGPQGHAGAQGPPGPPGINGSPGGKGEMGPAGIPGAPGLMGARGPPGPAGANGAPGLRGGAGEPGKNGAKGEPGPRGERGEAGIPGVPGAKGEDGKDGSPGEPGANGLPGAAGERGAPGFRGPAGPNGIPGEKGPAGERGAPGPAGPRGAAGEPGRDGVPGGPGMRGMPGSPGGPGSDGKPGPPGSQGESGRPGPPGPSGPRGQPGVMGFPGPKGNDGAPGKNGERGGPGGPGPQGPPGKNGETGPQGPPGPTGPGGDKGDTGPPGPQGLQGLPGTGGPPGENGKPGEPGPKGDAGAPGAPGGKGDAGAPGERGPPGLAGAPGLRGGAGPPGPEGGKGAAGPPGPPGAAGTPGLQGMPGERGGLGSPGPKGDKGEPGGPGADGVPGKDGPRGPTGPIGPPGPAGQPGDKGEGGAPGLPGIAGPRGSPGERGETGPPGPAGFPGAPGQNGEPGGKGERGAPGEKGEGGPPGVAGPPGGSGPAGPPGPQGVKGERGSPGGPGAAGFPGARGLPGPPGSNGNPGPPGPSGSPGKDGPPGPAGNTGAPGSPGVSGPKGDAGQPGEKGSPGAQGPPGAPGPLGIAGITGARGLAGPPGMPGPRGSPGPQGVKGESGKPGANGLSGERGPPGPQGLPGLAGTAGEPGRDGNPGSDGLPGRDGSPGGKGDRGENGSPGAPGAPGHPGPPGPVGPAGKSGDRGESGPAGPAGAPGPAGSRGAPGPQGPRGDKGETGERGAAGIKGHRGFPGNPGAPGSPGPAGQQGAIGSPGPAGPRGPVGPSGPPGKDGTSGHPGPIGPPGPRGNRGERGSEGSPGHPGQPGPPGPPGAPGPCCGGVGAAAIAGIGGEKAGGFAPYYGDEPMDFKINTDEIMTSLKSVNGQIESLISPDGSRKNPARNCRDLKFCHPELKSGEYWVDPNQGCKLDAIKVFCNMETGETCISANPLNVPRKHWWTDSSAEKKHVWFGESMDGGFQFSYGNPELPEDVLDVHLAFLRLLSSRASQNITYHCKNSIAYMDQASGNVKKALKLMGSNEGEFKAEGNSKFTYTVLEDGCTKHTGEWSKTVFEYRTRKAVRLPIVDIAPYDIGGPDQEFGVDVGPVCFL

T2: (GDK)4 acceptor peptide
T2 chain: GDKGDKGDKGDK

T3: MimiD peptide GTKGETGLKGII
T3 chain: GTKGETGLKGII

B1: Mimivirus prolyl hydroxylase L593_long (protein)
chain: MKTVTIITIIVVIIVVILIIMVLSKSCVSHFRNVGSLNSRDVNLKDDFSYANIDDPYNKPFVLNNLINPTKCQEIMQFANGKLFDSQVLSGTDKNIRNSQQMWISKNNPMVKPIFENICRQFNVPFDNAEDLQVVRYLPNQYYNEHHDSCCDSSKQCSEFIERGGQRILTVLIYLNNEFSDGHTYFPNLNQKFKPKTGDALVFYPLANNSNKCHPYSLHAGMPVTSGEKWIANLWFRERKFS
B2: Mimivirus prolyl hydroxylase L593_short (protein)
chain: MVLSKSCVSHFRNVGSLNSRDVNLKDDFSYANIDDPYNKPFVLNNLINPTKCQEIMQFANGKLFDSQVLSGTDKNIRNSQQMWISKNNPMVKPIFENICRQFNVPFDNAEDLQVVRYLPNQYYNEHHDSCCDSSKQCSEFIERGGQRILTVLIYLNNEFSDGHTYFPNLNQKFKPKTGDALVFYPLANNSNKCHPYSLHAGMPVTSGEKWIANLWFRERKFS
B3: Mimivirus lysyl hydroxylase L230 (protein)
chain: MISRTYVINLARRPDKKDRILAEFLKLKEKGVELNCVIFEAVDGNNPEHLSRFNFKIPNWTDLNSGKPMTNGEVGCALSHWSVWKDVVDCVENGTLDKDCRILVLEDDVVFLDNFMERYQTYTSEITYNCDLLYLHRKPLNPYTETKISTHIVKPNKSYWACAYVITYQCAKKFMNANYLENLIPSDEFIPIMHGCNVYGFEKLFSNCEKIDCYAVQPSLVKLTSNAFNDSETFHSGSYVPSNKFNFDTDKQFRIVYIGPTKGNSFHRFTEYCKLYLLPYKVIDEKETNDFVSLRSELQSLSEQDLNTTLMLVVSVNHNDFCNTIPCAPTNEFIDKYKQLTTDTNSIVSAVQNGTNKTMFIGWANKISEFINHYHQKLTESNAETDINLANLLLISSISSDFNCVVEDVEGNLFQLINEESDIVFSTTTSRVNNKLGKTPSVLYANSDSSVIVLNKVENYTGYGWNEYYGYHVYPVKFDVLPKIYLSIRIVKNANVTKIAETLDYPKELITVSISRSEHDSFYQADIQKFLLSGADYYFYISGDCIITRPTILKELLELNKDFVGPLMRKGTESWTNYWGDIDPSNGYYKRSFDYFDIIGRDRVGCWNVPYLASVYLIKKSVIEQVPNLFTENSHMWNGSNIDMRLCHNLRKNNVFMYLSNLRPYGHIDDSINLEVLSGVPTEVTLYDLPTRKEEWEKKYLHPEFLSHLQNFKDFDYTEICNDVYSFPLFTPAFCKEVIEVMDKANLWSKGGDSYFDPRIGGVESYPTQDTQLYEVGLDKQWHYVVFNYVAPFVRHLYNNYKTKDINLAFVVKYDMERQSELAPHHDSSTYTLNIALNEYGKEYTAGGCEFIRHKFIWQGQKVGYATIHAGKLLAYHRALPITSGKRYILVSFVN

Tests used:
[1] = target: (GPP)7 acceptor peptide
[2] = target: T1, His10-tagged human collagen III …
[3] = target: T2, (GDK)4 acceptor peptide
[4] = target: T3, MimiD peptide GTKGETGLKGII

| Protein | prolyl hydroxylase activity ([14C]-CO2 production from [14C]-2-oxoglutarate) [1] | hydroxyproline in collagen III after co-expression in E. coli (amino acid analysis by HPLC, tandem mass spectrometry of tryptic peptides) [2] | lysyl hydroxylase activity [3] | lysyl hydroxylase activity [4] | hydroxylysine in collagen III after co-expression in E. coli (amino acid analysis by HPLC) [2] |
| --- | --- | --- | --- | --- | --- |
| B1 | Both short and long forms of L593 are active as prolyl hydroxylases, but the short form has a higher specific activity than the long form |  |  |  |  |
| B2 | the short form of L593 yielded prolyl hydroxylase activity in the range of 600 pmol/min/mg protein | the amino acid hydroxyproline was clearly detected in the human collagen III extract when the Mimivirus L593 protein was co-expressed |  |  |  |
| B3 |  |  | The lysyl hydroxylase activity was highest towards the (GDK)4 peptide and the GTKGETGLKGII peptide derived from a Mimivirus collagen sequence | The lysyl hydroxylase activity was highest towards the (GDK)4 peptide and the GTKGETGLKGII peptide derived from a Mimivirus collagen sequence | A peak corresponding to hydroxylysine was detected in collagen III co-expressed with L230 but not in collagen expressed alone in E. coli |
